The series deals with Rsc3ΔIDR (Saccharomyces cerevisiae, UniProt Q06639 1-885, del197-303). Nature of the series: EMSA. In general terms: Mobility shift assays separate free from complexed probe on a gel.

B1: ACC1_TIM23 probe (RSC3 consensus oligonucleotide) (dsDNA)
DNA 1: ACGCGCGCGCGGCCGGGCCA
DNA 2: TGGCCCGGCCGCGCGCGCGT
For B1, the binding result is reported as “binds”.

For the origin of these results see article PMC10297700.
